Assay results as given in ChEMBL document CHEMBL1143079, “Designing better coumarin-based fluorogenic substrates for PTP1B” (Bioorg Med Chem Lett, 2008).

Tests used:
[1] = substrate: COC(=O)Cc1cc(=O)oc2cc(OP(=O)(O)O)ccc12
[2] = substrate: COC(=O)[C@H](Cc1ccc(OP(=O)(O)O)cc1)NC(=O)Cc1cc(=O)oc2cc(OP(=O)(O)O)ccc12
[3] = substrate: NC(=O)Cc1cc(=O)oc2cc(OP(=O)(O)O)ccc12
[4] = substrate: NC(=O)[C@H](Cc1ccc(OP(=O)(O)O)cc1)NC(=O)Cc1cc(=O)oc2cc(OP(=O)(O)O)ccc12
[5] = substrate: O=C(Cc1cc(=O)oc2cc(OP(=O)(O)O)ccc12)NCCc1ccc(O)cc1
[6] = substrate: O=C(Cc1cc(=O)oc2cc(OP(=O)(O)O)ccc12)NCCc1ccc(OP(=O)(O)O)cc1
[7] = substrate: O=C(Cc1cc(=O)oc2cc(OP(=O)(O)O)ccc12)NCc1ccc(OP(=O)(O)O)cc1
[8] = substrate: O=C(Cc1cc(=O)oc2cc(OP(=O)(O)O)ccc12)OCc1ccccc1
[9] = substrate: O=C(O)CCNC(=O)Cc1cc(=O)oc2cc(OP(=O)(O)O)ccc12

B1: Tyrosine-protein phosphatase non-receptor type 1 (Homo sapiens), P18031 (protein)
chain: MEMEKEFEQIDKSGSWAAIYQDIRHEASDFPCRVAKLPKNKNRNRYRDVSPFDHSRIKLHQEDNDYINASLIKMEEAQRSYILTQGPLPNTCGHFWEMVWEQKSRGVVMLNRVMEKGSLKCAQYWPQKEEKEMIFEDTNLKLTLISEDIKSYYTVRQLELENLTTQETREILHFHYTTWPDFGVPESPASFLNFLFKVRESGSLSPEHGPVVVHCSAGIGRSGTFCLADTCLLLMDKRKDPSSVDIKKVLLEMRKFRMGLIQTADQLRFSYLAVIEGAKFIMGDSSVQDQWKELSHEDLEPPPEHIPPPPRPPKRILEPHNGKCREFFPNHQWVKEETQEDKDCPIKEEKGSPLNAAPYGIESMSQDTEVRSRVVGGSLRGAQAASPAKGEPSLPEKDEDHALSYWKPFLVNMCVATVLTAGAYLCYRFLFNSNT
Km [1]: 147 µM
kcat [1]: 8.2 s⁻¹
Km [2]: 82 µM
kcat [2]: 3.4 s⁻¹
Km [3]: 224 µM
kcat [3]: 5 s⁻¹
Km [4]: 149 µM
kcat [4]: 3.2 s⁻¹
kcat [5]: 4.8 s⁻¹
Km [6]: 38 µM
kcat [6]: 7.1 s⁻¹
Km [7]: 25 µM
kcat [7]: 5.2 s⁻¹
Km [8]: 36 µM
kcat [8]: 10.5 s⁻¹
Km [9]: 111 µM
kcat [9]: 5.8 s⁻¹
